Reference: US10842793B2, “Inhibitors of the unconventional secretion of fibroblast growth factor 2 (FGF2) by tumor cells and uses thereof” (Universität Heidelberg, priority 2016, dated 2020)

Legend:
GST-NΔ173 Tec = molecular target: T1, GST-NΔ173 Tec (Homo sapiens, UniProt P42680); assay: Steady-state fluorescence polarization, FGF2 binding to GST-NΔ173 Tec; settings: fluorescein-labeled FGF2 50 nM, 1:1 stoichiometry, ± SEM; read-out: dissociation constant FGF2 / GST-NΔ173 Tec
T1 construct: made in house; host or cells: Tec: SF9 insect cells (baculovirus); FGF2: E. coli
Experimental: (§1) (A) Fluorescence polarization experiments were conducted using fluorescein-labeled FGF2. FGF2 (at a constant concentration of 50 nM) was incubated with increasing concentrations (0 to 20 μM) of the various Tec constructs indicated. Following incubation for 3 hours at room temperature, changes in polarization (ΔPolarization in mP) were recorded. A non-linear regression analysis was conducted (GST-NΔ173 Tec: black circles, n=8; SH1 kinase domain: green squares, n=5; GST-PH-TH: blue triangles, n=3; GST-SH3-SH2: red triangles, n=3; GST: orange rhombuses, n=5) and standard errors of the mean (SEM) were calculated. As detailed in Experimental Procedures, assuming a binding stoichiometry of 1:1, dissociation constants were calculated to be 1.434 μM±0.55 (SEM) for GST-NΔ173 Tec and 1.032 μM±0.29 (SEM) for the SH1 kinase domain of Tec. FIG. 2A discloses “His6” as SEQ ID NO: 2.
(§2) To determine binding affinity between Tec kinase and FGF2, steady-state fluorescence polarization was used. […] Based on the extinction coefficients of both His-tagged FGF2 and fluroscein-5-maleimide, the degree of labeling was determined to be 30%. […] Absolute protein concentrations were determined based upon the extinction coefficients calculated for each protein and measuring absorption at 280 nm using a NanoDrop 1000 spectrophotometer. […]

SH1 kinase domain of Tec = molecular target: T2, SH1 kinase domain of Tec (Homo sapiens, UniProt P42680); assay: Steady-state fluorescence polarization, FGF2 binding to SH1 kinase domain of Tec; settings: fluorescein-labeled FGF2 50 nM, 1:1 stoichiometry, ± SEM; read-out: dissociation constant FGF2 / SH1 kinase domain of Tec
T2 construct: yielding a homogenous preparation of the SH1 kinase domain; His (N, cleaved yes); made in house; host or cells: Tec SH1: SF9 insect cells (baculovirus); FGF2: E. coli
Experimental: as §1, §2

T1 sequence (P42680 174-631, stated change not applied): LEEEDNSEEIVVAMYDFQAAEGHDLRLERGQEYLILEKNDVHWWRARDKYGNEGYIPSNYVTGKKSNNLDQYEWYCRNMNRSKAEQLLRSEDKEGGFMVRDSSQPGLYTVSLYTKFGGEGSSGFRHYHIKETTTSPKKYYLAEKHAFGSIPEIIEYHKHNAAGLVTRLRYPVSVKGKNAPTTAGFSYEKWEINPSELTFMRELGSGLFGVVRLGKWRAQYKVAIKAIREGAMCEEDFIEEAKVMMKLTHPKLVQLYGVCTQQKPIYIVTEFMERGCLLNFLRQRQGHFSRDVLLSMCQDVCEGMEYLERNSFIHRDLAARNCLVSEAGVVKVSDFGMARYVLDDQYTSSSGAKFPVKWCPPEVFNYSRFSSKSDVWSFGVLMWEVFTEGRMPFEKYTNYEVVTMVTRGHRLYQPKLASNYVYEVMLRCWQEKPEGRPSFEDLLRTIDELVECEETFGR
T2 sequence (P42680 370-623 limits assumed): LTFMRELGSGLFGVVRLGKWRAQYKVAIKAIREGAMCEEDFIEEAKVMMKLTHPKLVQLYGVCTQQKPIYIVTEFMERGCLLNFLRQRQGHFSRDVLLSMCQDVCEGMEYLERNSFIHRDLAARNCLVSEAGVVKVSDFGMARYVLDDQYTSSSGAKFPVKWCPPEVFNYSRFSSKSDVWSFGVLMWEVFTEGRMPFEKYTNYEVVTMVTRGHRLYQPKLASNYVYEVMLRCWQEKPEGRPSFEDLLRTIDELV

## FGF2: recombinant fibroblast growth factor 2, His-tagged and fluorescein-labeled for fluorescence polarization
GST-NΔ173 Tec
  Kd: 1430 nM
SH1 kinase domain of Tec
  Kd: 1030 nM
